In patent publication US20100272817A1:
Square brackets hold non-standard residues; d marks the D form. Ends that are not written are not given here.

Molecular target: cholesterol ester hydrolase (CEH)

B1: retro-inversal D amino acid peptide … (D-form; SEQ ID NO:3) (peptide)
peptide: [dR][dF][dH][dN][dP][dD][dK]G[dS][dR]G[dW][dE][dN][dA][dA][dQ][dD][dA]
modifications: also: retro-inverso peptide
in vivo macrophage cholesterol export ([3H]-cholesterol in plasma 5 hours after peptide injection): 2.5 fold
